According to patent US7919526B2, “Structured triglycerides and emulsions comprising same” (HTL High-Tech Lipids Ltd., priority 2005, dated 2011):

Experiments:
Type in all cases: biochemical
[1] = acidolysis activity of lipases using MCT and capric acid; conditions: MCT (1 gr), capric acid (0.34 gr), 500 mg enzyme preparation, 50° C., solvent-free
Procedure: (§1) The acidolysis activity of crude enzymes and enzymes adapted for synthetic reactions was assayed by adding an enzyme preparation (500 mg) into a 10 ml reaction solution containing MCT and a free fatty acid where the molar ratio between both substrates was 1:1. […] Samples (0.1 ml) were taken from the reaction mixture and mixed with 10 ml solvent comprised of acetone-dichloromethane at a ratio of 90:10. The samples were filtered through a Millipore filter (pore size 0.45 μm) and then injected to the HPLC.
(§2) The reaction progress was followed by analyzing the triglyceride composition in the reaction medium before and after the enzymatic reaction using an HPLC equipped with an ELSD (Evaporative light Scattering Detector). The HPLC was equipped with a LiChrosorb CH-18 Super (250×4 mm, 5 μm, MERCK). The HPLC running conditions were as follows: mobile phase A, Acetonitrile/Dichloromethane/Acetone (80/15/5); mobile phase B: […] (20/60/20). The flow rate was 1 ml/min and the gradient was 0 to 100% B for 30 min.
(§3) The substrate conversion was calculated as follows: Conversion %=100×(Sum of area of the 4 peaks representing the MCT at time zero)−([…])per Sum of area of the 4 peaks representing the MCT at time zero. The MCT conversion (%) was used as an indicative parameter for the efficiency of enzyme activity to obtain the desired product. Results
(§4) Tables 1-12 show the acidolysis activity of various lipases, which were screened for their ability to catalyze the reaction between MCT and free fatty acids in a solvent-free system according to the enzymatically catalyzed reaction presented in FIG. 1. All lipases were used in their crude form as supplied by the manufacturer (Sigma) or immobilized on an insoluble matrix. Immobilized lipases were activated before their use in the acidolysis reaction containing MCT and a long-chain fatty acid by pretreatment with a biphase system containing 50% triglyceride oil such as olive oil, soy oil and the like and 50% water. This pretreatment lead to the activation of the immobilized enzymes for synthetic applications. […]

[2] = acidolysis activity of lipases using MCT and palmitic acid; conditions: MCT (1 gr), palmitic acid (0.51 gr), 500 mg enzyme preparation, 50° C., solvent-free
Procedure: as §1, §2, §3, §4

[3] = acidolysis activity of lipases using MCT and linoleic acid; conditions: MCT (1 gr), linoleic acid (0.55 gr), 500 mg enzyme preparation, 50° C., solvent-free
Procedure: as §1, §2, §3, §4

[4] = acidolysis activity of lipases using MCT and stearic acid; conditions: MCT (1 gr), stearic acid (0.56 gr), 500 mg enzyme preparation, 50° C., solvent-free
Procedure: (§8) The acidolysis activity of crude enzymes and enzymes adapted for synthetic reactions was assayed by adding an enzyme preparation (500 mg) into a 10 ml reaction solution containing MCT and a free fatty acid where the molar ratio between both substrates was 1:1. The reaction mixture was shaken for 16 hours at a temperature of 50° C. Samples (0.1 ml) were taken from the reaction mixture and mixed with 10 ml solvent comprised of acetone-dichloromethane at a ratio of 90:10. The samples were filtered through a Millipore filter (pore size 0.45 μm) and then injected to the HPLC.
(§9) The reaction progress was followed by analyzing the triglyceride composition in the reaction medium before and after the enzymatic reaction using an HPLC equipped with an ELSD (Evaporative light Scattering Detector). The HPLC was equipped with a LiChrosorb CH-18 Super (250×4 mm, 5 μm, MERCK). The HPLC running conditions were as follows: mobile phase A, Acetonitrile/Dichloromethane/Acetone (80/15/5); mobile phase B: Acetone/Dichloromethane/Acetone (20/60/20). The flow rate was 1 ml/min and the gradient was 0 to 100% B for 30 min.
(§10) The substrate conversion was calculated as follows: Conversion %=100×(Sum of area of the 4 peaks representing the MCT at time zero)−(Sum of area of the 4 peaks representing the MCT after 16 h reaction time)per Sum of area of the 4 peaks representing the MCT at time zero. The MCT conversion (%) was used as an indicative parameter for the efficiency of enzyme activity to obtain the desired product.
All lipases were used in their crude form as supplied by the manufacturer (Sigma) or immobilized on an insoluble matrix. Immobilized lipases were activated before their use in the acidolysis reaction containing MCT and a long-chain fatty acid by pretreatment with a biphase system containing 50% triglyceride oil such as olive oil, soy oil and the like and 50% water. […]

[5] = acidolysis activity of lipases using MCT and caprylic acid; conditions: for Conversion % (24 h): MCT (1 gr), caprylic acid (0.28 gr), 500 mg enzyme preparation, 50° C., solvent-free; for acidolysis activity in words, Caprylic acid and MCT: summary of Table 2
Procedure: as §1, §2, §3
(§5) Tables 1-12 show the acidolysis activity of various lipases, which were screened for their ability to catalyze the reaction between MCT and free fatty acids in a solvent-free system according to the enzymatically catalyzed reaction presented in FIG. 1. All lipases were used in their crude form as supplied by the manufacturer (Sigma) or immobilized on an insoluble matrix. Immobilized lipases were activated before their use in the acidolysis reaction containing MCT and a long-chain fatty acid by pretreatment with a biphase system containing 50% triglyceride oil such as olive oil, soy oil and the like and 50% water. This pretreatment lead to the activation of the immobilized enzymes for synthetic applications.
(§6) A typical enzyme activation and immobilization procedure used in this example is as follows: 1 g of a crude lipase preparation was dissolved in a 1 L of phosphate buffer solution of an appropriate pH according to the recommendation of the enzyme's manufacturer. 10 g of support matrix (silica, celite, an ion-exchange resin such as DUOLITE® A56, DUOLITE® A7, DUOLITE® XAD761, or Amberlite™ XAD16) were added into the stirred enzyme solution. The slurry was shaken for 8 hours at a temperature of 10° C. Hundred ml of cold acetone was optionally added into the stirred slurry in order to enhance the enzyme immobilization on the matrix surface. The immobilized enzyme was filtered of from the mixture and then freeze-dried or used wet for the following step. One g of freeze-dried immobilized lipase (water content of less than 2 weight %) or wet immobilized lipase (water content of approx. 20%) was added into a biphase system comprised of 5 g olive oil and 2 g buffer solution of pH7 at room temperature. The mixture was stirred for 10 min. The immobilized lipases was filtered of from the mixture, washed with cold acetone, dried in a desiccator and then used for the acidolysis reaction between MCT and a fatty acyl donor.
(§7) Reaction conditions: MCT (1 gr), caproic acid (0.23 gr), and 500 mg enzyme preparation. The reaction mixture was shaken and thermostated at 50° C. for 16 h. […]

[6] = acidolysis activity of lipases using MCT and lauric acid; conditions: MCT (1 gr), lauric acid (0.4 gr), 500 mg enzyme preparation, 50° C., solvent-free
Procedure: as §8, §9, §10
Reaction conditions as described in Table 1, with one modification, namely lauric acid (0.4 gr) was used as the fatty acid.

[7] = acidolysis activity of lipases using MCT and oleic acid; conditions: MCT (1 gr), oleic acid (0.56 gr), 500 mg enzyme preparation, 50° C., solvent-free
Procedure: as §8, §9, §10

[8] = acidolysis activity of lipases using MCT and caproic acid; conditions: for Conversion % (24 h): MCT (1 gr), caproic acid (0.23 gr), 500 mg enzyme preparation, 50° C., solvent-free; for acidolysis activity in words, Caproic acid and MCT: summary of Table 1
Procedure: as §8, §9, §10

[9] = acidolysis activity of lipases using MCT and arachidonic acid; conditions: for Conversion % (24 h): MCT (1 gr), arachidonic acid (0.6 gr), 500 mg enzyme preparation, 50° C., solvent-free
Procedure: as §1, §2, §3, §5
A typical enzyme activation and immobilization procedure used in this example is as follows: 1 g of a crude lipase preparation was dissolved in a 1 L of phosphate buffer solution of an appropriate pH according to the recommendation of the enzyme's manufacturer. 10 g of support matrix (silica, celite, an ion-exchange resin such as DUOLITE® A56, DUOLITE® A7, DUOLITE® XAD761, or Amberlite™ XAD16) were added into the stirred enzyme solution. The slurry was shaken for 8 hours at a temperature of 10° C. Hundred ml of cold acetone was optionally added into the stirred slurry in order to enhance the enzyme immobilization on the matrix surface. […]

[10] = acidolysis activity of lipases using MCT and alpha-linolenic acid; conditions: MCT (1 gr), alpha-linolenic acid (0.55 gr), 500 mg enzyme preparation, 50° C., solvent-free
Procedure: as §8, §9, §10

[11] = acidolysis activity of lipases using MCT and EPA; conditions: for Conversion % (24 h): MCT (1 gr), EPA (0.6 gr), 500 mg enzyme preparation, 50° C., solvent-free; for efficiency of incorporation of EPA into MCT, in words: summary of Table 11
Procedure: as §1, §2, §3, §5, §6, §7

[12] = acidolysis activity of lipases using MCT and DHA; conditions: MCT (1 gr), DHA (0.65 gr), 500 mg enzyme preparation, 50° C., solvent-free
Procedure: as §1, §2, §3, §4

Molecule | Conversion % [1] | Conversion % [2] | Conversion % [3] | Conversion % (24 h) [4] | Conversion % (24 h) [5] | Conversion % (24 h) [6] | Conversion % (24 h) [7] | Conversion % (24 h) [8] | Conversion % (24 h) [9] | Conversion % (24 h) [10] | Conversion % (24 h) [11] | Conversion % (24 h) [12] | acidolysis activity in words, Caprylic acid and MCT [5] | acidolysis activity in words, Caproic acid and MCT [8] | efficiency of incorporation of EPA into MCT, in words [11] | efficiency of incorporation of ARA into MCT, in words ([9]; summary of Table 10)
Porcine pancreas lipase: lipase from porcine pancreas (Sigma), crude or immobilized (protein, UniProt P00591 1-450, looked up, crude or immobilized) Pancreatic triacylglycerol …: SEVCFPRLGCFSDDAPWAGIVQRPLKILPWSPKDVDTRFLLYTNQNQNNYQELVADPSTITNSNFRMDRKTRFIIHGFIDKGEEDWLSNICKNLFKVESVNCICVDWKGGSRTGYTQASQNIRIVGAEVAYFVEVLKSSLGYSPSNVHVIGHSLGSHAAGEAGRRTNGTIERITGLDPAEPCFQGTPELVRLDPSDAKFVDVIHTDAAPIIPNLGFGMSQTVGHLDFFPNGGKQMPGCQKNILSQIVDIDGIWEGTRDFVACNHLRSYKYYADSILNPDGFAGFPCDSYNVFTANKCFPCPSEGCPQMGHYADRFPGKTNGVSQVFYLNTGDASNFARWRYKVSVTLSGKKVTGHILVSLFGNEGNSRQYEIYKGTLQPDNTHSDEFDSDVEVGDLQKVKFIWYNNNVINPTLPRVGASKITVERNDGKVYDFCSQETVREEVLLTLNPC | 5% | 1% | 5% | 5% | 5% | 6% | 4% | 6% | 2% | 6% | 3% | 5% |  |  |  | 
Mucor miehei: lipase of Mucor miehei origin (Sigma), crude or immobilized (protein, UniProt P19515 95-363, looked up, crude or immobilized) Lipase: SIDGGIRAATSQEINELTYYTTLSANSYCRTVIPGATWDCIHCDATEDLKIIKTWSTLIYDTNAMVARGDSEKTIYIVFRGSSSIRNWIADLTFVPVSYPPVSGTKVHKGFLDSYGEVQNELVATVLDQFKQYPSYKVAVTGHSLGGATALLCALDLYQREEGLSSSNLFLYTQGQPRVGDPAFANYVVSTGIPYRRTVNERDIVPHLPPAAFGFLHAGEEYWITDNSPETVQVCTSDLETSDCSNSIVPFTSVLDHLSYFGINTGLCT | 39% | 41% | 41% | 42% | 42% | 38% | 40% | 35% | 3% | 31% | 25% | 27% | reasonable acidolysis activity | preferred sources | the most efficient enzymes | 
Rhizomucor miehei: lipase of Rhizomucor miehei origin (Sigma), crude or immobilized (protein, UniProt P19515 95-363, looked up, crude or immobilized) Lipase: SIDGGIRAATSQEINELTYYTTLSANSYCRTVIPGATWDCIHCDATEDLKIIKTWSTLIYDTNAMVARGDSEKTIYIVFRGSSSIRNWIADLTFVPVSYPPVSGTKVHKGFLDSYGEVQNELVATVLDQFKQYPSYKVAVTGHSLGGATALLCALDLYQREEGLSSSNLFLYTQGQPRVGDPAFANYVVSTGIPYRRTVNERDIVPHLPPAAFGFLHAGEEYWITDNSPETVQVCTSDLETSDCSNSIVPFTSVLDHLSYFGINTGLCT | 37% | 33% | 35% | 37% | 37% | 39% | 43% | 31% | 15% | 39% | 30% | 16% | reasonable acidolysis activity | preferred sources | the most efficient enzymes | among the most efficient enzymes
